According to the supplement of paper PMC12042874:
± gives the uncertainty stated by the source.

test: amyloid nucleation score (Sup35N fusion, yeast selection) (log enrichment); library NNK3; higher = more nucleation; inactive = no reads after selection
Procedure, shortened: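 Peptides of 20 random codons, each fused to Sup35N, were expressed in psi-negative yeast. Cells were induced with 100 μM copper sulfate for 24 hours and grown 7 days at 30°C on medium lacking adenine and uracil, and plasmid inserts before and after selection were Illumina-sequenced. Nucleation scores are DiMSum log enrichments of output over input reads, centred on the mode score of non-aggregating sequences, and sequences under 100 input reads were excluded.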

Substance	amyloid nucleation score
GVLLFLYCYLRGPLYSTTSV	inactive
GVLLNTSELGSNGMDSKTLD	inactive
GVLSCLSIMIAISGLPGSEK	0.801 ± 0.2
GVLTTALVGTCWPSTCFYGL	inactive
GVSISQPTILQWSTVRTSID	0.04 ± 0.85
GVSVCVGDVGNLAAFECFRA	inactive
GVYVWFAALNNPTVEGFLNS	inactive
GWELTFRSEF	inactive
GWLGSVGAKPADRVGKTGGI	0.504 ± 0.24
GWMSATVLFQLSE	inactive
GWNSFPRPLYPRWDNSESAS	inactive
GWNTSSQRLHSAKPSHHRR	-0.892 ± 1.9
GWWRMAWLV	inactive
GWYLFC	inactive
GYDQKLES	inactive
GYESLYRQHLYDSSLCWESR	inactive
GYFFGTTKKCETFTCMRWQV	inactive
GYMDAGIDWF	inactive
GYMRSLYIRYYSRRRFRCI	inactive
GYMWNRVGCLVEDDHNEGVN	inactive
GYQNVSTHRVKALAHRIWVG	inactive
GYYFWQWLRIIL	inactive
HAGATL	inactive
HARFNVRNN	inactive

Substance	amyloid nucleation score
HASMQFWKVDNSFNALMRLG	0.398 ± 0.18
HASSHYT	inactive
HCCVLSARGWLIGSMRWPHC	inactive
HCLSHTLQHNHTMISANSRS	inactive
HCQQGS	inactive
HCQSRRWTKFLYMGWLPSSS	1.55 ± 0.1
HDNQFYVMLWAISAAYRLAS	inactive
HECVYYSSLTQSYVSVYIFT	2.65 ± 0.077
HENYEFLFWWRESFS	inactive
HEVLVVIRNLFDFVVFCVLQ	inactive
HEYKCKL	inactive
HFPAGFFSNWFCSIYYKVY	inactive
HFPTCWVGYVKHAVLRYLIY	inactive
HGAVRQLNRGRKWSSLETVG	0.85 ± 0.19
HGFSVTILTRVLTVGNSRRS	inactive
HGGMVSMGGNKQ	inactive
HGKSYILVWCMRHSRTECVR	inactive
HGKVGKRFRLGQKAYVSGLW	inactive
HGMVRCKSDQACDSMVGCVR	inactive
HGRLLYVSYISDMINASYGQ	inactive
HGTIVIDYRHSPW	1.07 ± 0.1
HGTKREKIYLYGYCPDKNHH	inactive
HHKAEGAHVKITDLSFDVKS	inactive
HHLKGQ	inactive

Substance	amyloid nucleation score
HHTKILSSYISWVYILITNS	inactive
HHYCRGSICESVSQMYWISW	inactive
HIEFNWPVGLARSWMFCFSH	inactive
HIPGNLYYKDTFRCAELGHW	inactive
HIWVCHWRYYVIMLPRSAWI	inactive
HKILRSVGFGRILAYGLLDI	inactive
HKQCWYILVNVRLMSRSRRV	0.818 ± 0.13
HLELDFNFSVLHTYCYFLAP	inactive
HLFSNTWYTK	inactive
HLIST	inactive
HLKCLGNKACEGRVITHVAD	inactive
HLKSVGVVYDWMSQWSLWCR	inactive
HLLELELVFSILRRLMYWPM	inactive
HLLIHANF	1.25 ± 0.14
HLPKLLYATFKWSRYSSKFA	-0.172 ± 1.3
HLPRKLVRPRRF	-0.415 ± 1.2
HLRLYCHPMNFRWHRRYYEP	0.249 ± 0.4
HLSFDIVV	inactive
HLSWNSLTDRNVLC	inactive
HLSYKSQLS	inactive
HLVAVWVSWGILYRSVHCRS	inactive
HLWVSVVNSTESSMTMA	inactive
HMGNKRLCYCSSR	-0.326 ± 0.87
HMLSNFGARVREYIAMFGRL	inactive

Substance	amyloid nucleation score
HMSVVSVFIRRMPNASSTRR	0.562 ± 0.13
HMVSFAERTVSDVGTVNPGQ	inactive
HNCASCSVRVHDSQSEKIAT	inactive
HNLVSSSSTCCRRHPCMAG	inactive
HNNLLSCYLMAPVFHSMMSE	inactive
HNRLEAMFY	inactive
HNSRFPSF	0.338 ± 0.58
HNYLRS	inactive
HPESCPGLGSLSGEPR	inactive
HPLDYTVGSVVMGV	inactive
HQISFSM	inactive
HRDETGVHAVALSKSVWYKW	-1.07 ± 1.1
HRDYFFRPTFL	inactive
HRIVSFYRNSWVPSIFVYED	inactive
HRKIRFGYSL	inactive
HRRLGRTFFCATLGLHLCDF	inactive
HRSNCDYDIQYVYIFFS	2.36 ± 0.063
HRVIWSFSFVRSDFCFPYCA	inactive
HSCITFSLPCTFRQRFCLLS	inactive
HSELW	inactive
HSKFWFCLFRIFQVSGLFNR	inactive
HSLVSLWYGSRCIILSR	inactive
HSNVGCKFAIKYSLAFCGVK	inactive
HSRAVLTLLW	inactive

Substance	amyloid nucleation score
HSRTYFQSISGWISCLMSTL	1.13 ± 0.11
HSSCGNEVFFDSSVGSNRIL	inactive
HSSGDTWLGRV	inactive
HSSSLLRLQPVVHYLLLNVD	inactive
HSVIPWDTISDTA	inactive
HSVIRRFNIPMELYHMWLIS	inactive
HSVIVVCVFSYELFEFHSAV	inactive
HTVVPNRVNSPCVWWLFFVW	1.3 ± 0.11
HTWFNFVYEVRSNKLTP	inactive
HVAGTCAQLTLFKDIGLTYK	inactive
HVDPCWQKTFTMMLFWVFLR	inactive
HVFRLAWTMKLWEADTLS	inactive
HVKDVMQRNFRVMGSSSR	inactive
HVLKDARCDS	0.181 ± 0.36
HVNNTKSSLVRLSVLMHSVS	inactive
HVTRLVFMNSRYVAKFVGRA	inactive
HWACNWI	inactive
HWHMIMIKCQLEFTKEVIRA	inactive
HWSFQTVIDYGHPKFF	1.45 ± 0.15
HWTNHYNYCGRA	1.19 ± 0.082
HYAVQYTNRYKGFKLHKQHN	inactive
HYPIRERNAFLLNNDVDLLA	inactive
